Measurements reported in the supplement of paper PMC7125110.
± gives the standard error. For some of these results: Variants at the floor of the assay were thinned out.

B1: glmS ribozyme (parent)
chain: AUAAAAGCGCCAGAACUACAGAAAUGUAGUUGACGAGGAGGAGGUUUAUCGAAUUUUCGGCGGAUGCCUCCAAA

Legend:
Details in all cases: with glucosamine-6-phosphate
[1] = variants of: B1; assay: kcat; higher = faster cleavage; RNA array
How it was run: (§1)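 Glucosamine-6-phosphate, from 40 μM to 10 mM in HEPES/KCl/Mg(OAc)2 buffer, was flowed over sequenced MiSeq chips carrying barcoded ribozyme variants transcribed in situ by E. coli RNA polymerase. A hybridised Cy3 probe tracked the variants at 37 °C as tiles were imaged over ~14 h. kobs, kcat and KM were obtained by fitting normalised per-tile medians to exponential decays and then applying weighted Michaelis–Menten fits across concentrations.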

[2] = variants of: B1; assay: self-cleavage kobs at 40 uM GlcN6P; higher = faster cleavage; RNA array
How it was run: as §1

[3] = variants of: B1; assay: self-cleavage kobs at 160 uM GlcN6P; higher = faster cleavage; RNA array
How it was run: as §1

[4] = variants of: B1; assay: self-cleavage kobs at 640 uM GlcN6P; higher = faster cleavage; RNA array
How it was run: as §1

[5] = variants of: B1; assay: KM; higher = weaker cofactor use; RNA array
How it was run: as §1

[6] = variants of: B1; assay: self-cleavage kobs at 2500 uM GlcN6P; higher = faster cleavage; RNA array
How it was run: as §1

[7] = variants of: B1; assay: self-cleavage kobs at 10000 uM GlcN6P; higher = faster cleavage; RNA array
How it was run: as §1

## U56G G59C
[1]
  kcat: < 1e-05 s⁻¹
[2]
  self-cleavage kobs at 40 uM GlcN6P: < 1e-05 s⁻¹
[3]
  self-cleavage kobs at 160 uM GlcN6P: < 1e-05 s⁻¹
[4]
  self-cleavage kobs at 640 uM GlcN6P: < 1e-05 s⁻¹

## U56G G59A
[1]
  kcat: 5.14e-05 ± 3e-06 s⁻¹
[5]
  KM: 1920 ± 460 µM
[6]
  self-cleavage kobs at 2500 uM GlcN6P: 3e-05 ± 8.2e-06 s⁻¹
[7]
  self-cleavage kobs at 10000 uM GlcN6P: 4.3e-05 ± 6.1e-06 s⁻¹

## C58A G62A
[1]
  kcat: < 1e-05 s⁻¹
[2]
  self-cleavage kobs at 40 uM GlcN6P: < 1e-05 s⁻¹
[4]
  self-cleavage kobs at 640 uM GlcN6P: < 1e-05 s⁻¹

## G63U C70G
[1]
  kcat: 2.12e-05 ± 4.8e-06 s⁻¹
[4]
  self-cleavage kobs at 640 uM GlcN6P: 2.59e-05 ± 1.1e-05 s⁻¹
[6]
  self-cleavage kobs at 2500 uM GlcN6P: 2.19e-05 ± 1e-05 s⁻¹

## U65A U69G
[1]
  kcat: 5.5e-05 ± 1.5e-05 s⁻¹
[3]
  self-cleavage kobs at 160 uM GlcN6P: 7.34e-05 ± 1.9e-05 s⁻¹
[4]
  self-cleavage kobs at 640 uM GlcN6P: 4.35e-05 ± 1.4e-05 s⁻¹
[6]
  self-cleavage kobs at 2500 uM GlcN6P: 8.3e-05 ± 1.9e-05 s⁻¹

## G63C C67G
[1]
  kcat: < 1e-05 s⁻¹
[2]
  self-cleavage kobs at 40 uM GlcN6P: < 1e-05 s⁻¹

## C68A C70U
[1]
  kcat: 1.14e-05 ± 4.1e-06 s⁻¹

## U57G C68A
[1]
  kcat: 2.56e-05 ± 8.2e-06 s⁻¹
[4]
  self-cleavage kobs at 640 uM GlcN6P: 3.37e-05 ± 1.4e-05 s⁻¹

## C67A C70U
[1]
  kcat: 0.00153 ± 0.00062 s⁻¹
[2]
  self-cleavage kobs at 40 uM GlcN6P: 9.1e-05 ± 9.4e-06 s⁻¹
[3]
  self-cleavage kobs at 160 uM GlcN6P: 0.000211 ± 3.6e-05 s⁻¹
[4]
  self-cleavage kobs at 640 uM GlcN6P: 0.000461 ± 6.6e-05 s⁻¹
[6]
  self-cleavage kobs at 2500 uM GlcN6P: 0.00129 ± 0.00019 s⁻¹
[7]
  self-cleavage kobs at 10000 uM GlcN6P: 0.00206 ± 0.00033 s⁻¹

## C67A C70A
[1]
  kcat: 5e-05 ± 6.5e-06 s⁻¹
[4]
  self-cleavage kobs at 640 uM GlcN6P: 4.23e-05 ± 1.8e-05 s⁻¹
[6]
  self-cleavage kobs at 2500 uM GlcN6P: 6.33e-05 ± 1e-05 s⁻¹
[7]
  self-cleavage kobs at 10000 uM GlcN6P: 4.28e-05 ± 7.3e-06 s⁻¹

## G59A A64G
[1]
  kcat: 9.06e-05 ± 1.3e-05 s⁻¹
[2]
  self-cleavage kobs at 40 uM GlcN6P: < 1e-05 s⁻¹
[6]
  self-cleavage kobs at 2500 uM GlcN6P: 6.66e-05 ± 2.7e-05 s⁻¹
[7]
  self-cleavage kobs at 10000 uM GlcN6P: 7.67e-05 ± 1.6e-05 s⁻¹

## G62U C67A
[1]
  kcat: < 1e-05 s⁻¹
[2]
  self-cleavage kobs at 40 uM GlcN6P: < 1e-05 s⁻¹
[7]
  self-cleavage kobs at 10000 uM GlcN6P: < 1e-05 s⁻¹

## G66C C70A
[1]
  kcat: 8.82e-05 ± 1.9e-05 s⁻¹
[3]
  self-cleavage kobs at 160 uM GlcN6P: 8.3e-05 ± 3e-05 s⁻¹
[4]
  self-cleavage kobs at 640 uM GlcN6P: 4.17e-05 ± 1.3e-05 s⁻¹
[6]
  self-cleavage kobs at 2500 uM GlcN6P: 6.82e-05 ± 1.2e-05 s⁻¹
[7]
  self-cleavage kobs at 10000 uM GlcN6P: 9e-05 ± 1.4e-05 s⁻¹

## A64U C67A
[1]
  kcat: 2.58e-05 ± 3.2e-06 s⁻¹
[7]
  self-cleavage kobs at 10000 uM GlcN6P: 2.41e-05 ± 6.5e-06 s⁻¹

## A64U C67U
[1]
  kcat: 5.93e-05 ± 6.4e-06 s⁻¹
[6]
  self-cleavage kobs at 2500 uM GlcN6P: 5.62e-05 ± 8.7e-06 s⁻¹
[7]
  self-cleavage kobs at 10000 uM GlcN6P: 5.31e-05 ± 6.3e-06 s⁻¹

## C67A U69G
[1]
  kcat: 4.96e-05 ± 1.7e-05 s⁻¹
[4]
  self-cleavage kobs at 640 uM GlcN6P: 6.63e-05 ± 1.6e-05 s⁻¹
[6]
  self-cleavage kobs at 2500 uM GlcN6P: 6.57e-05 ± 1.3e-05 s⁻¹

## C58A U65G
[1]
  kcat: 5.13e-05 ± 1.3e-05 s⁻¹
[6]
  self-cleavage kobs at 2500 uM GlcN6P: 4.93e-05 ± 1.3e-05 s⁻¹
[7]
  self-cleavage kobs at 10000 uM GlcN6P: 4.32e-05 ± 1.3e-05 s⁻¹

## U57G G66A
[1]
  kcat: 2.15e-05 ± 3.2e-06 s⁻¹
[2]
  self-cleavage kobs at 40 uM GlcN6P: < 1e-05 s⁻¹

## G60C C68A
[1]
  kcat: 1.32e-05 ± 4.3e-06 s⁻¹
[2]
  self-cleavage kobs at 40 uM GlcN6P: < 1e-05 s⁻¹
[7]
  self-cleavage kobs at 10000 uM GlcN6P: < 1e-05 s⁻¹

## G66U C70U
[1]
  kcat: 0.00205 ± 0.00047 s⁻¹
[5]
  KM: 1830 ± 590 µM
[2]
  self-cleavage kobs at 40 uM GlcN6P: 6.67e-05 ± 8e-06 s⁻¹
[3]
  self-cleavage kobs at 160 uM GlcN6P: 0.000141 ± 1.7e-05 s⁻¹
[4]
  self-cleavage kobs at 640 uM GlcN6P: 0.000507 ± 4.8e-05 s⁻¹
[6]
  self-cleavage kobs at 2500 uM GlcN6P: 0.00124 ± 0.00016 s⁻¹
[7]
  self-cleavage kobs at 10000 uM GlcN6P: 0.00175 ± 0.00019 s⁻¹

## U56G U57G
[1]
  kcat: < 1e-05 s⁻¹
[7]
  self-cleavage kobs at 10000 uM GlcN6P: < 1e-05 s⁻¹

## U65C C71U
[1]
  kcat: 0.000792 ± 0.00011 s⁻¹
[5]
  KM: 1460 ± 510 µM
[4]
  self-cleavage kobs at 640 uM GlcN6P: 0.000236 ± 4.3e-05 s⁻¹
[6]
  self-cleavage kobs at 2500 uM GlcN6P: 0.000617 ± 0.00011 s⁻¹
[7]
  self-cleavage kobs at 10000 uM GlcN6P: 0.000659 ± 8e-05 s⁻¹

## U65C C71A
[1]
  kcat: 0.000104 ± 5.5e-06 s⁻¹
[5]
  KM: 481 ± 140 µM
[4]
  self-cleavage kobs at 640 uM GlcN6P: 6.26e-05 ± 2.5e-05 s⁻¹
[6]
  self-cleavage kobs at 2500 uM GlcN6P: 8.23e-05 ± 2e-05 s⁻¹
[7]
  self-cleavage kobs at 10000 uM GlcN6P: 0.000102 ± 2.3e-05 s⁻¹

## C67G C68U
[1]
  kcat: 7.04e-05 ± 1.8e-06 s⁻¹
[5]
  KM: 234 ± 34 µM
[3]
  self-cleavage kobs at 160 uM GlcN6P: 2.51e-05 ± 1e-05 s⁻¹
[4]
  self-cleavage kobs at 640 uM GlcN6P: 5.35e-05 ± 6.6e-06 s⁻¹
[6]
  self-cleavage kobs at 2500 uM GlcN6P: 6.33e-05 ± 6e-06 s⁻¹
[7]
  self-cleavage kobs at 10000 uM GlcN6P: 6.92e-05 ± 6.7e-06 s⁻¹

## C58G C61G
[1]
  kcat: 3.21e-05 ± 1e-05 s⁻¹
[4]
  self-cleavage kobs at 640 uM GlcN6P: 5.63e-05 ± 2.4e-05 s⁻¹

## C67U C71U
[1]
  kcat: 0.00245 ± 0.0012 s⁻¹
[2]
  self-cleavage kobs at 40 uM GlcN6P: 6.24e-05 ± 6.8e-06 s⁻¹
[3]
  self-cleavage kobs at 160 uM GlcN6P: 0.000128 ± 1.6e-05 s⁻¹
[4]
  self-cleavage kobs at 640 uM GlcN6P: 0.000403 ± 3.1e-05 s⁻¹
[6]
  self-cleavage kobs at 2500 uM GlcN6P: 0.00121 ± 0.00026 s⁻¹
[7]
  self-cleavage kobs at 10000 uM GlcN6P: 0.00213 ± 0.00029 s⁻¹

## A64U C70G
[1]
  kcat: 1.26e-05 ± 2.6e-06 s⁻¹
[2]
  self-cleavage kobs at 40 uM GlcN6P: < 1e-05 s⁻¹

## U65C C67G
[1]
  kcat: 6.8e-05 ± 3.8e-06 s⁻¹
[4]
  self-cleavage kobs at 640 uM GlcN6P: 5.5e-05 ± 1.4e-05 s⁻¹
[7]
  self-cleavage kobs at 10000 uM GlcN6P: 6.72e-05 ± 8.1e-06 s⁻¹

## U56C G60A
[1]
  kcat: 1.14e-05 ± 1.1e-07 s⁻¹
[5]
  KM: 1070 ± 61 µM

## A72C
[1]
  kcat: 0.00605 ± 0.0029 s⁻¹
[2]
  self-cleavage kobs at 40 uM GlcN6P: 0.000372 ± 7.3e-05 s⁻¹
[4]
  self-cleavage kobs at 640 uM GlcN6P: 0.00257 ± 0.00043 s⁻¹
[6]
  self-cleavage kobs at 2500 uM GlcN6P: 0.00362 ± 0.00077 s⁻¹
[7]
  self-cleavage kobs at 10000 uM GlcN6P: 0.0121 ± 0.0021 s⁻¹

## G66C C71A
[1]
  kcat: 0.000163 ± 2.2e-05 s⁻¹
[6]
  self-cleavage kobs at 2500 uM GlcN6P: 0.000143 ± 1.5e-05 s⁻¹
[7]
  self-cleavage kobs at 10000 uM GlcN6P: 0.000132 ± 2.2e-05 s⁻¹

## C11U C50U
[5]
  KM: 98.2 ± 43 µM

## C58A C71A
[1]
  kcat: 5.74e-05 ± 1e-05 s⁻¹
[4]
  self-cleavage kobs at 640 uM GlcN6P: 3.29e-05 ± 1.3e-05 s⁻¹
[6]
  self-cleavage kobs at 2500 uM GlcN6P: 7.33e-05 ± 1.5e-05 s⁻¹
[7]
  self-cleavage kobs at 10000 uM GlcN6P: 4.88e-05 ± 9.7e-06 s⁻¹

## U65G C68U
[1]
  kcat: 0.00167 ± 0.00057 s⁻¹
[2]
  self-cleavage kobs at 40 uM GlcN6P: 5.31e-05 ± 8.4e-06 s⁻¹
[3]
  self-cleavage kobs at 160 uM GlcN6P: 0.000159 ± 3.2e-05 s⁻¹
[4]
  self-cleavage kobs at 640 uM GlcN6P: 0.000304 ± 4.1e-05 s⁻¹
[6]
  self-cleavage kobs at 2500 uM GlcN6P: 0.000758 ± 0.00013 s⁻¹
[7]
  self-cleavage kobs at 10000 uM GlcN6P: 0.00155 ± 0.00018 s⁻¹

## A64U
[1]
  kcat: 0.00017 ± 6.8e-06 s⁻¹
[5]
  KM: 1860 ± 190 µM
[3]
  self-cleavage kobs at 160 uM GlcN6P: 1.18e-05 ± 2.4e-06 s⁻¹
[4]
  self-cleavage kobs at 640 uM GlcN6P: 4.12e-05 ± 1.3e-06 s⁻¹
[6]
  self-cleavage kobs at 2500 uM GlcN6P: 0.000102 ± 1.9e-06 s⁻¹
[7]
  self-cleavage kobs at 10000 uM GlcN6P: 0.000141 ± 2.2e-06 s⁻¹

## A64G
[1]
  kcat: 0.0475 ± 0.0029 s⁻¹
[5]
  KM: 2080 ± 150 µM
[2]
  self-cleavage kobs at 40 uM GlcN6P: 0.000914 ± 1.8e-05 s⁻¹
[3]
  self-cleavage kobs at 160 uM GlcN6P: 0.0031 ± 0.0002 s⁻¹
[4]
  self-cleavage kobs at 640 uM GlcN6P: 0.0109 ± 0.0004 s⁻¹
[6]
  self-cleavage kobs at 2500 uM GlcN6P: 0.0249 ± 0.0011 s⁻¹
[7]
  self-cleavage kobs at 10000 uM GlcN6P: 0.0412 ± 0.0018 s⁻¹

## A64C
[1]
  kcat: 0.000188 ± 1.2e-05 s⁻¹
[5]
  KM: 1610 ± 260 µM
[3]
  self-cleavage kobs at 160 uM GlcN6P: 1.42e-05 ± 3e-06 s⁻¹
[4]
  self-cleavage kobs at 640 uM GlcN6P: 5.05e-05 ± 1.6e-06 s⁻¹
[6]
  self-cleavage kobs at 2500 uM GlcN6P: 0.000127 ± 3e-06 s⁻¹
[7]
  self-cleavage kobs at 10000 uM GlcN6P: 0.000157 ± 2.8e-06 s⁻¹
